Measurements taken from patent publication US20160152686A1 (Bristol-Myers Squibb, published 2016).
Each block holds one binder with its values, some of them ahead of it.

Key:
human serum albumin [1] = target: T1, human serum albumin (human, UniProt P02768 25-609); test: SPR, serum albumin immobilized on chip, ABD-(GS)3-C7FL-His6 (0.02 nM-300 nM) as analyte
T1 construct: also called HSA; HuSA
Experimental: (§1) The binding affinity of ABD-(GS)3-C7FL-His6 to human, mouse and Cynomolgus monkey serum albumin was also measured. In an SPR experiment, the serum albumins were immobilized on chip, and ABD-(GS)3-C7FL-His6 (0.02 nM-300 nM) was flowed as analyte.

[2] = target: Cynomolgus monkey serum albumin (given as RhSA in Table 3) (Cynomolgus monkey; RhSA (table)); test: as above
Experimental: as §1

mouse serum albumin = target: T2, mouse serum albumin (mouse, UniProt P07724 25-608); test: as above
T2 construct: also called MuSA
Experimental: as §1

VEGFR2-Fc = test: SPR, VEGFR2 immobilized on chip, ABD-(GS)3-C7FL-His6 (0.02 nM-300 nM) as analyte
sol VEGFR2 = test: as above
human serum albumin [3] = target: T1, human serum albumin; test: SPR, affinity to HSA
[4] = target: recombinant human PCSK9 expressed in baculovirus (human, UniProt Q8NBP7 31-692, limits assumed); test: PCSK9:EGFA FRET competition assay (inhibition of PCSK9 binding to biotinylated EGFA peptide)
From the text: A fluorescence resonance energy transfer (FRET)-based assay was developed to determine the binding affinity and potency of PCSK9-binding adnectins. It was adapted from the general method described previously by Maio et al. (Miao, B. et al., Meth. Enzymol., 357:180-188 (2002); see also WO 2011/130354). The PCSK9:EGFA FRET assay measures the inhibition of PCSK9 binding to the LDLR epidermal growth factor precursor homology domain (EGFA domain), using recombinant human PCSK9 expressed in baculovirus and a synthetic 40-mer EGFA peptide (biotinylated). […] This assay uses a PCSK9 C-terminal domain binding mAb (mAb 4H5) labeled with Eu-chelate to provide FRET interaction with biotinylated EGFA through the streptavidin/allophycocyanin fluorophore complex. […] Thus, the biological activity of PCSK9 adnectin linked to ABD is at least as good as that of the unmodified PCSK9 adnectin.

Kd (human serum albumin [1]): 1.15 nM | koff (human serum albumin [1]): 0.000505 s⁻¹ | kon (human serum albumin [1]): 439000 M⁻¹ s⁻¹ | Kd [2]: 1.82 nM | koff [2]: 0.000826 s⁻¹ | kon [2]: 455000 M⁻¹ s⁻¹ | Kd (mouse serum albumin): 1 nM | koff (mouse serum albumin): 0.00033 s⁻¹ | kon (mouse serum albumin): 331000 M⁻¹ s⁻¹ | Kd (VEGFR2-Fc): 3.31 nM | koff (VEGFR2-Fc): 0.000163 s⁻¹ | kon (VEGFR2-Fc): 49300 M⁻¹ s⁻¹ | Kd (sol VEGFR2): 3.18 nM | koff (sol VEGFR2): 0.000261 s⁻¹ | kon (sol VEGFR2): 82000 M⁻¹ s⁻¹ | Kd (human serum albumin [3]): 1.15 nM
B1: ABD-(GS)3-C7FL-His6 (anti-VEGFR2 adnectin linked to ABD at its N-terminus) (designed binder)
chain: MGQHDEAVDANSLAEAKVLANRELDKYGVSDYYKNLINNAKTVEGVKALIDEILAALPGSGSGSVSDVPRDLEVVAATPTSLLISWRHPHFPTRYYRITYGETGGNSPVQEFTVPLQPPTATISGLKPGVDYTITVYAVTDGRNGRLLSIPISINYRTGSGSHHHHHH
notes: also called ABD-C7FL; ATI-0001087

EC50 [4]: 0.3 nM | Kd (human serum albumin [3]): 12.4 nM
B2: PCSK9 adnectin-ABD fusion protein (PCSK9 adnectin-(GS)3-ABD-His6) (designed binder)
chain: MGVSDVPRDLEVVAATPTSLLISWVPPSDDYGYYRITYGETGGNSPVQEFTVPIGKGTATISGLKPGVDYTITVYAVEFPWPHAGYYHRPISINYRTGSGSGSQHDEAVDANSLAEAKVLANRELDKYGVSDYYKNLINNAKTVEGVKALIDEILAALPHHHHHH
notes: Expressed in E. coli; also called PCSK9 Adn-(GS)3-ABD; 2013_E01-(GS)3-ABD (anti-PCSK9)

EC50 [4]: 2.6 nM
B3: unmodified (i.e., without ABD) PCSK9 adnectin (designed binder)
chain: VSDVPRDLEVVAATPTSLLISWVPPSDDYGYYRITYGETGGNSPVQEFTVPIGKGTATISGLKPGVDYTITVYAVEFPWPHAGYYHRPISINYRT
notes: also called Enhancer method: None
